The target in this assay is mEPCR on mouse brain microvascular endothelial cells (bEND3) (mouse (endogenous in bEND3)) (UniProt Q64695). In words: radioligand binding.

Here are results for two substances from PMC3883592.

Chain of mEPCR on mouse brain microvascular endothelial cells (bEND3) (mouse (endogenous in bEND3)) (Q64695 18-242): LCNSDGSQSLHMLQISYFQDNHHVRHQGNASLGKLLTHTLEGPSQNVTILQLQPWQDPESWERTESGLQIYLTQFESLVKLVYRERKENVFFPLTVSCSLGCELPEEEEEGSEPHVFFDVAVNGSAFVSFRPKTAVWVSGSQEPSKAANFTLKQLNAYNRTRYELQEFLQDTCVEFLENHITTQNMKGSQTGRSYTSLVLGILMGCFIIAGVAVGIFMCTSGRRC

In the case of Mouse APC (enzyme), the amount bound as percent of human APC at 50 nM turned out to be 30% and the fold increase of binding with 1 mM Mg2+ over Ca2+ alone came to 3 fold.
In general, Kd refers to the constant that tells how readily two partners part at equilibrium. Low readings indicate tighter binding, high ones weaker binding. “Recombinant activated human protein C (Xigris) (enzyme)” registered a Kd of 23 nM and a fold increase of binding with 1 mM Mg2+ over Ca2+ alone of 10 fold.
